One may read the Kd as the constant that tells how readily two partners part at equilibrium.

The values that follow come from the Immune Epitope Database (IEDB).

The target of assay [1] is HLA-B*44:02. Kind of assay: IEDB peptide-MHC binding, purified MHC/direct/fluorescence; filed as Kd, often an IC50 or EC50 that approximates it; ≥ and ≤ were set here for values at or beyond the usual limits of such assays.
Assay [2] has as its target HLA-A*03:01. Described as above.
Assay [3] deals with HLA-A*11:01. The assay is described as above.
Assay [4] has as its target HLA-A*26:01. The description is as above.
Assay [5] deals with HLA-A*02:01. The description is as above.
Assay [6] has as its target HLA-A*01:01. Described as above.
Assay [7] addresses HLA-A*31:01. The assay is described as above.
Assay [8] deals with HLA-B*35:01. The assay is described as above.
Assay [9] concerns the target HLA-B*27:05. The assay is described as above.
Assay [10] concerns the target HLA-A*69:01. Described as above.
Assay [11] deals with HLA-B*08:01. The assay is described as above.
The target in assay [12] is HLA-B*07:02. Described as above.
For assay [13], the target named is HLA-B*58:01. The assay is described as above.
Assay [14] deals with HLA-B*40:01. The assay is described as above.
Assay [15] has as its target HLA-B*39:01. The assay is described as above. The note with it: source organism: Giardia lamblia ATCC 50803.
Assay [16] has as its target HLA-B*15:01. Described as above.
Assay [17] addresses HLA-A*02:01. Kind of assay: IEDB peptide-MHC binding, purified MHC/competitive/radioactivity; filed as Kd, often an IC50 or EC50 that approximates it; ≥ and ≤ were set here for values at or beyond the usual limits of such assays.
In assay [18] the target is HLA-A*02:17. The assay is described as above.
For assay [19], the target named is HLA-A*02:03. Described as above. As to conditions: source organism: Dengue virus 1 Brazil/97-11/1997.
In assay [20] the target is HLA-A*02:06. Described as above. As to conditions: source organism: Dengue virus 1 Brazil/97-11/1997.
Assay [21] deals with HLA-A*03:01. Kind of assay: IEDB peptide-MHC binding, purified MHC/competitive/fluorescence; filed as Kd, often an IC50 or EC50 that approximates it; ≥ and ≤ were set here for values at or beyond the usual limits of such assays.
Assay [22] concerns the target HLA-A*31:01. Described as above.
The target in assay [23] is HLA-A*24:03. Kind of assay: IEDB peptide-MHC binding, purified MHC/direct/fluorescence; filed as Kd, often an IC50 or EC50 that approximates it; ≥ and ≤ were set here for values at or beyond the usual limits of such assays.
Assay [24] addresses HLA-B*46:01. The assay is described as above. The note with it: source organism: Yellow fever virus.
Assay [25] concerns the target HLA-B*48:01. Described as above. As to conditions: source organism: Yellow fever virus.
In assay [26] the target is HLA-B*15:09. The assay is described as above. As to conditions: source organism: Yellow fever virus.
The target of assay [27] is HLA-B*57:01. Described as above. The note with it: source organism: Yellow fever virus.
For assay [28], the target named is HLA-B*18:01. The description is as above. As to conditions: source organism: Yellow fever virus.
Assay [29] addresses HLA-A*33:01. Put plainly: IEDB peptide-MHC binding, purified MHC/competitive/radioactivity; filed as Kd, often an IC50 or EC50 that approximates it; ≥ and ≤ were set here for values at or beyond the usual limits of such assays. As to conditions: source organism: Lassa virus Josiah.
Assay [30] has as its target HLA-A*68:01. The description is as above. The note with it: source organism: Lassa virus Josiah.
The target in assay [31] is HLA-B*15:01. Put plainly: IEDB peptide-MHC binding, purified MHC/competitive/fluorescence; filed as Kd, often an IC50 or EC50 that approximates it; ≥ and ≤ were set here for values at or beyond the usual limits of such assays. As to conditions: source organism: Escherichia coli O157:H7 str. EDL933.
[32] abbreviates: source organism: Vibrio parahaemolyticus.
Where [33] appears, read: source organism: Giardia lamblia ATCC 50803.
[34] abbreviates: source organism: Dengue virus 1 Singapore/S275/1990.
[35] abbreviates: source organism: Bacillus anthracis str. A2012.
The mark [36] stands for this setting: source organism: Shigella sonnei Ss046.
Setting [37] is: source organism: Corynebacterium glutamicum.
Where [38] appears, read: source organism: Haemophilus influenzae.
Where [39] appears, read: source organism: Yellow fever virus.
[40] abbreviates: source organism: Mammarenavirus lassaense.
The mark [41] stands for this setting: source organism: Dengue virus 3 China/80-2/1980.

In the case of AFDWPELEF, the Kd in [1] (setting [32]), in assay [2] (setting [32]), in assay [3] (setting [32]), in [4] (setting [32]), in [5] (setting [32]) and in [6] (setting [32]) was at least 20000 nM each time. For the same sequence, the Kd in assay [7] (setting [32]) is at least 20000 nM; in assay [8] (source organism: Vibrio vulnificus), 77.2 nM; in assay [9] (setting [32]), at least 20000 nM; in [10] (setting [32]) it was at least 20000 nM; in assay [11] (setting [32]), at least 20000 nM; in [12] (setting [32]), at least 20000 nM.

With ARADGILRF, the Kd in [13] (setting [33]) is at least 20000 nM; in assay [1] (setting [33]), at least 20000 nM; in assay [14] (setting [33]), 3170 nM; in [2] (setting [33]), at least 20000 nM; in [3] (setting [33]) it was at least 20000 nM; in [4] (setting [33]), at least 20000 nM. Also, the equilibrium dissociation constant (Kd) in assay [5] (setting [33]) is at least 20000 nM; in [6] (setting [33]), at least 20000 nM; in [15], 2560 nM; in assay [7] (setting [33]) it was at least 20000 nM; in [8] (setting [33]), 4030 nM; in [16] (setting [33]) it was at least 20000 nM. Besides, the dissociation constant Kd in assay [9] (setting [33]) is 201 nM; in assay [10] (setting [33]), at least 20000 nM; in assay [11] (setting [33]), at least 20000 nM; in assay [12] (setting [33]), at least 20000 nM.

Take KILNPYMPSV: the dissociation constant Kd in assay [17] (setting [34]) stood at 4.81 nM; in assay [18] (setting [34]) it was 7.71 nM; in assay [19], 48.5 nM; in assay [20] it was 5.14 nM.

For LLLSFTSFR, the Kd in [21] (setting [35]) stood at 22.9 nM; in [22] (setting [35]), 2.6 nM.

As to MQLSRLTLR, the equilibrium dissociation constant (Kd) was 3500 nM in assay [21] (setting [36]) and 6.1 nM in [22] (setting [36]).

Turning to FAAAAARTL, the Kd is 2380 nM in assay [13] (setting [37]); at least 20000 nM in assay [23] (setting [37]); 2570 nM in assay [14] (setting [37]); at least 20000 nM in assay [2] (setting [37]); at least 20000 nM in [3] (setting [37]); at least 20000 nM in assay [4] (setting [37]). Besides, the equilibrium dissociation constant (Kd) is at least 20000 nM in assay [5] (setting [37]); at least 20000 nM in [6] (setting [37]); at least 20000 nM in assay [7] (setting [37]); 5.17 nM in assay [8] (setting [37]); 296 nM in [16] (setting [37]); at least 20000 nM in [9] (setting [37]). Moreover, the Kd in [11] (setting [37]) is 2340 nM; in [12] (setting [37]) it was 122 nM.

For the sequence YATVAGHEG, the Kd is at least 20000 nM in assay [13] (setting [38]); 893 nM in assay [23] (setting [38]); at least 20000 nM in [14] (setting [38]); at least 20000 nM in assay [2] (setting [38]); at least 20000 nM in assay [3] (setting [38]); at least 20000 nM in assay [4] (setting [38]). The Kd in assay [5] (setting [38]) was 666 nM; in [6] (setting [38]), at least 20000 nM; in [7] (setting [38]), at least 20000 nM; in [8] (setting [38]), 290 nM; in assay [16] (setting [38]) it was 10500 nM; in assay [9] (setting [38]) it was at least 20000 nM. Moreover, the equilibrium dissociation constant (Kd) in assay [10] (setting [38]) and in assay [11] (setting [38]) was at least 20000 nM throughout.

For FHKRDMRLL, the Kd in assay [13] (setting [39]), in assay [1] (setting [39]), in [14] (setting [39]), in assay [2] (setting [39]), in assay [24] and in assay [3] (setting [39]) was at least 20000 nM in each case. Moreover, the dissociation constant (Kd) in assay [25] is at least 20000 nM; in assay [26], 3000 nM; in assay [5] (setting [39]) it was at least 20000 nM; in [6] (setting [39]), at least 20000 nM; in [7] (setting [39]), at least 20000 nM; in assay [27], at least 20000 nM. Moreover, the equilibrium dissociation constant (Kd) in assay [16] (setting [39]), in assay [9] (setting [39]), in assay [28], in assay [10] (setting [39]) and in assay [12] (setting [39]) was at least 20000 nM in each case.

For ILNPYMPSV, the dissociation constant Kd in assay [17] (setting [34]) worked out at 4.26 nM; in assay [18] (setting [34]), 3.58 nM; in assay [19] it was 1.98 nM; in assay [20], 4.98 nM.

In the case of RTRDIYISR, the dissociation constant Kd was 98.5 nM in assay [2] (setting [40]); at least 20000 nM in [3] (setting [40]); 4.75 nM in [22] (source organism: Lassa virus GA391); 22.3 nM in assay [29]; 825 nM in assay [30].

EIKFNDITF: the Kd in assay [13] (setting [38]) was at least 20000 nM; in [14] (setting [38]), at least 20000 nM; in assay [2] (setting [38]), at least 20000 nM; in assay [3] (setting [38]) it was at least 20000 nM; in assay [4] (setting [38]), 568 nM; in [5] (setting [38]), at least 20000 nM. Further, the Kd was at least 20000 nM in [6] (setting [38]); at least 20000 nM in assay [7] (setting [38]); 50.9 nM in [8] (setting [38]); at least 20000 nM in assay [16] (setting [38]); at least 20000 nM in [9] (setting [38]); at least 20000 nM in assay [10] (setting [38]). Besides, the Kd in [11] (setting [38]) was 2640 nM; in [12] (setting [38]), 1060 nM.

As for ALFSGVSWIM, the Kd in assay [17] (setting [41]) was 6.61 nM; in assay [18] (setting [41]) it was 202 nM.

For the sequence AVFEIFFRK, the results for the dissociation constant Kd in assay [3] (source organism: Mycobacterium tuberculosis) and in assay [22] (source organism: Mycobacterium tuberculosis variant bovis BCG str. Pasteur 1173P2) were 12.6 nM and 61.7 nM, respectively.

For VLIGRRWFR, the Kd is 1.7 nM in assay [22] (source organism: Escherichia coli O157:H7 str. EDL933) and at least 20000 nM in assay [31].

For KLRMVTGLR, the dissociation constant (Kd) in assay [2] (source organism: Influenza A virus (A/Liaoning/25/2000(H1N1))) stood at 366 nM; in assay [22] (source organism: Influenza A virus (A/Bangkok/10/1983(H1N1))), 45.1 nM.
